According to IntAct's records for PubMed 25042851:

B1: Ubiquitin-binding protein CUE5 (Saccharomyces cerevisiae), Q08412 (parent)
chain: MEEKEGIKDSSLLEKSNVPESINEDISKTTDVDLNSDGKKDNDTSAKDGTPKVEEKVNKSSGIDEDEVVTPAEDAKEEEEEHPPLPARRKSEEEPSKENPILQELKDAFPNLEEKYIKAVIIASQGVLSPAFNALLFLSDPESGKDIELPTQPVRKNPEAPARRRQTQLEQDELLARQLDEQFNSSHSRRRNRDRATRSMHEQRRRRHNPNEREQHHEDSEEEDSWSQFVEKDLPELTDRAGRSLQDTANKVSNWISDAYRRNFASGNEQNDNQHGHQDQQEWEPEIVDLSQGGKNSRPQQPERRRFNSFGVQVGDDSLESHGITLHNEDGFEDDEDVPPQLPTRTKSGESTGKVVAETTYIDTPDTETKKKWQPLPPEPLDTTPTKVNAVSRNKKNPDEDEFLINSDDEM
partner: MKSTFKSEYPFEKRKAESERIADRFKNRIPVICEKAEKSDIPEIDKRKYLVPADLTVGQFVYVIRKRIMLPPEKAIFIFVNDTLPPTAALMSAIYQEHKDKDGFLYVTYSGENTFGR
B2: Ubiquitin-binding protein CUE5 (Saccharomyces cerevisiae), Q08412 (parent)
chain: B1 chain

Variants of: B1
Conditions: with atg8_yeast ATG8, P38182

Row | Variant | effect of a mutation on the interaction
1 | MEEKEGIKDSSLLEKSNVPESINEDISKTTDVDLNSDGKKDNDTSAKDGTPKVEEKVNKSSGIDEDEVVTPAEDAKEEEEEHPPLPARRKSEEEPSKENPILQELKDAFPNLEEKYIKAVIIASQGVLSPAFNALLFLSDPESGKDIELPTQPVRKNPEAPARRRQTQLEQDELLARQLDEQFNSSHSRRRNRDRATRSMHEQRRRRHNPNEREQHHEDSEEEDSWSQFVEKDLPELTDRAGRSLQDTANKVSNWISDAYRRNFASGNEQNDNQHGHQDQQEWEPEIVDLSQGGKNSRPQQPERRRFNSFGVQVGDDSLESHGITLHNEDGFEDDEDVPPQLPTRTKSGESTGKVVAETTYIDTPDTETKKKAQPLPPEPLDTTPTKVNAVSRNKKNPDEDEFLINSDDEM [W373A] | decreasing interaction strength
2 | MEEKEGIKDSSLLEKSNVPESINEDISKTTDVDLNSDGKKDNDTSAKDGTPKVEEKVNKSSGIDEDEVVTPAEDAKEEEEEHPPLPARRKSEEEPSKENPILQELKDAFPNLEEKYIKAVIIASQGVLSPAFNALLFLSDPESGKDIELPTQPVRKNPEAPARRRQTQLEQDELLARQLDEQFNSSHSRRRNRDRATRSMHEQRRRRHNPNEREQHHEDSEEEDSWSQFVEKDLPELTDRAGRSLQDTANKVSNWISDAYRRNFASGNEQNDNQHGHQDQQEWEPEIVDLSQGGKNSRPQQPERRRFNSFGVQVGDDSLESHGITLHNEDGFEDDEDVPPQLPTRTKSGESTGKVVAETTYIDTPDTETKKKWQPAPPEPLDTTPTKVNAVSRNKKNPDEDEFLINSDDEM [L376A] | decreasing interaction strength
3 | MEEKEGIKDSSLLEKSNVPESINEDISKTTDVDLNSDGKKDNDTSAKDGTPKVEEKVNKSSGIDEDEVVTPAEDAKEEEEEHPPLPARRKSEEEPSKENPILQELKDAFPNLEEKYIKAVIIASQGVLSPAFNALLFLSDPESGKDIELPTQPVRKNPEAPARRRQTQLEQDELLARQLDEQFNSSHSRRRNRDRATRSMHEQRRRRHNPNEREQHHEDSEEEDSWSQFVEKDLPELTDRAGRSLQDTANKVSNWISDAYRRNFASGNEQNDNQHGHQDQQEWEPEIVDLSQGGKNSRPQQPERRRFNSFGVQVGDDSLESHGITLHNEDGFEDDEDVPPQLPTRTKSGESTGKVVAETTYIDTPDTETKKKAAAAPPEPLDTTPTKVNAVSRNKKNPDEDEFLINSDDEM [W373A;Q374A;P375A;L376A] | disrupting interaction strength

Variants of: B2
Conditions: with hd_human HTT

Row | Variant | effect of a mutation on the interaction
4 | MEEKEGIKDSSLLEKSNVPESINEDISKTTDVDLNSDGKKDNDTSAKDGTPKVEEKVNKSSGIDEDEVVTPAEDAKEEEEEHPPLPARRKSEEEPSKENPILQELKDAFPNLEEKYIKAVIIASQGVLSPAFNAAAFLSDPESGKDIELPTQPVRKNPEAPARRRQTQLEQDELLARQLDEQFNSSHSRRRNRDRATRSMHEQRRRRHNPNEREQHHEDSEEEDSWSQFVEKDLPELTDRAGRSLQDTANKVSNWISDAYRRNFASGNEQNDNQHGHQDQQEWEPEIVDLSQGGKNSRPQQPERRRFNSFGVQVGDDSLESHGITLHNEDGFEDDEDVPPQLPTRTKSGESTGKVVAETTYIDTPDTETKKKWQPLPPEPLDTTPTKVNAVSRNKKNPDEDEFLINSDDEM [L135A;L136A] | disrupting interaction strength
